Reference: PMC10995120

Target: GFP-CD16a (Homo sapiens) (UniProt P08637)
Experiment: SPR

Chain of UniProt P08637 (P08637 other isoform, or with tags, fused parts or gaps): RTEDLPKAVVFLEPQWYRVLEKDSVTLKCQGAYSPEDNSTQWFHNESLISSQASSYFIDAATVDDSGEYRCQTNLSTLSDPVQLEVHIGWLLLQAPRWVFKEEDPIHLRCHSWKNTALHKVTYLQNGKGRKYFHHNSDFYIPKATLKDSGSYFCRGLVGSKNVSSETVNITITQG

## rituximab
  Kd: 360 nM
